# According to the supplement of paper PMC9170038:
# Test system: K4 kissing-loop RNA reporter
# Assay: apparent KD of K4 kissing-loop reporter; higher = weaker reporter binding
# Settings: Eterna round: R107
# Experimental: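 RNA-MaP round R107: designed RNA switches with theophylline, tryptophan, arginine or FMN aptamers are transcribed on-chip within common flanks. They are titrated with a labelled K4 kissing-loop RNA reporter in RNA-MaP buffer (100 mM Tris pH 7.5, 80 mM KCl, 4 mM MgCl2), without ligand or with the indicated ligand. Median apparent KD per design.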
# [1] = input ligand: theophylline 20 uM
# [2] = input ligand: tryptophan 2.4 mM
# 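Also: bound reporter read as fluorescence of individual clusters on recovered sequencing chips by microscopy, with normalized cluster intensities fitted with a binding model.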
Sequence,apparent KD of K4 kissing-loop reporter (input ligand: FMN 200 uM) [nM],apparent KD of K4 kissing-loop reporter (input ligand: arginine 13.2 mM) [nM],apparent KD of K4 kissing-loop reporter (input ligand: none) [nM],apparent KD of K4 kissing-loop reporter [1] [nM],apparent KD of K4 kissing-loop reporter [2] [nM]
CACUCGGUAUCAGAUACCAGACUAACGAUACCGAGUGUAUCGGGUAGUGAUGUUACCAUAGUCCCUUGGCAGCUGAUAUACCAUA [Theo B SS t9],249,242,265,269,223
CAGAAGCAUUCGGCCGCCACUCCAGUGAUGUUGGAGCGGGAGGGCCUUAAACCUCGAGGCUGCUGGAGGACCGGGAAUGUUGAGG [Beerso],166,164,168,173,269
CAGAUCACAGAGUGAUGUUCUGUGUCCGAAGGAGCGCGCUUCGGCGCAGGUAGGUCGCGGAUACAGUUGACGUACCAUCUAGACA [Arg A Ex t3c],446,383,583,485,507
CAUACGCAUGGAGGAUAUGAGAUUUCUCAUAUUAUUUAAUAUUCUCAGUGAUGUUGAGAAUUUAACUCAGAAGGCCAUGUGUAUG [Ex FMN B 5],316,149,156,154,152
CAUACGCAUGGAGGAUAUGAGAUUUUUCAUAUUACUUUUUAUUCUCAGUGAUGUUGGGAUUUGUAAUCAGAAGGCCAUGUGUAUG [#10 K4 FMN B Exclusion],174,93.2,99.8,110,98.1
CAUACGCAUGGAGGAUAUGGGAUUUCUCAUAUUAACCUGUAUCAGGUAUCUCAGUGAUGUUGAGACUCAGAAGGCCAUGUGUAUG [Ex FMN B 25],494,303,364,354,344
CAUACUAUCAGAAGGAGCGUGGAAUAUUCAUCUGUAUCUAAUACGAGUGAUGUUCGUAAUUCACAGGUAGGUCGCUGAUUAAUAC [whbob_Ex_Arginine_B_2th159],265,272,267,269,219
CAUAGGAAACUAUGUUUCUCUCUGACUGAAGGAGCGCGUGAAAACGCAGGUAGGUCGCAGAAUUUAACAGAGAGUGAUGUUCUCA [Ex Arginine A K4 12],457,396,567,633,430
CAUAUACAAGUGAUGUUUGUACUAACCGAAGGAGCGUCGUUGAAGACAGGUAGGUCGCGGUUUAAGUUAGAUUAUAUAAUUCCAC [JR_Nu_SSArginiA_Sub027],705,535,892,715,509
CCAAUCUGUUACGAUACCAGUCAAAGAUAUUUGAUCAAUACCCUCACCGAGUGAUGUUCGGACCCUUGGCAGCGUCUGGGAUAGG [ceevmullin],228,267,266,281,193
CCACCAAGCACGGCCGCCACUAAAUCUGCAAGUAACCUAAAGUGAUGUUUUAUCUUGCGUCAGACUAGGACCGGGUGUCAAGUUA [theeternabot_sameState_KL_Trp_B_45],420,408,387,704,755
CCAGGAUGAUGAGGAUGAUGAAUUACUGAAGGAGCGCAUAUGGUUGCAGGUAGGUCGCGGUGAACAAGUAUAGUGAUGUUAUGCC [SSArgA.W],575,615,795,1160,545
CCAGGUUGCCGCAACGACCUGGAUUUUAGGGAGGAUAUCCAGAGCAGGAGAAGGCCCAGUGAUGUUGGGCCUGUGGAGCCCAUAU [Ararensoza],274,149,176,120,151
CCAUCGCUAUUCGAUACCAGUCAGGAGGUCUGUGACCUCCUAAUGGAGUGAUGUUCCUUAGACCCUUGGCAGCGAAUAGUGAUGG [#02 K4 Theophylline B Same State],203,196,221,141,202
CCAUCGCUAUUCGAUACCAGUCAUAAAAUCUUUGGUUAAAUAAAGGAGUGAUGUUCCAAAGACCCUUGGCAGCGAAUAGUGAUGG [Theophylline B K4 6],670,624,695,887,780
CCAUCGCUAUUCGAUACCAGUCAUAAAAUCUUUGGUUUAAUAAAGGAGUGAUGUUCCCAAGACCCUUGGCAGCGAAUAGUGAUGG [Theophylline B K4 8],186,185,176,197,190
CCAUGAGGAUAAGAUGAUAUCAUAACAGAAGGAGCGAGUGAUAACUCAGGUAGGUCGCUGAAUUUAUCGAGUGAUGUUCGAUGAA [Same State Arginine A GF11],194,164,193,179,164
CCAUUCAUCAGAAGGAGCGUCAAGUGAUGCUAUCCAGUGAUGUUGGAUAGCACGGAACAGUGACAGGUAGGUCGCUGAUGAGAGC [Arg B SS t8],121,106,115,95.7,131
CCAUUCUGUUACGAUACCAGUCAAAUAUAUUUGAUCAAUACCCUCGCCGAGUGAUGUUCGGACCCUUGGCAGCGUCUGGGACAGG [ccdfmullin],537,561,710,544,596
CCCAAAAUAUGCAGUGAUGUUGCAACCGAUACCAGUAUCGAAAGAUACCCUUGGCAGCGGAAAACCGCUACGUAAUUUAAAAGGG [Ex Theophylline A K4 17],308,318,311,603,254
CCCAAAAUAUGCAGUGAUGUUGCAACUGAUACCAGUAUCGAAAGAUACCCUUGGCAGCGGAAAACCGCUACGUAAUUUAAAAGGG [Ex Theophylline A K4 18],200,292,255,340,187
